The target of test [1] is human 4-1BB (human, UniProt Q07011 24-255). The test is described as follows: cell-based or functional assay.
The target in test [2] is T1, purified human C1q (human, UniProt P02745 23-245; P02746 28-253; P02747 29-245).
T1 construct: Purified C1q, Quidel Cat # A400; multimer of A, B and C chains
The test is described as follows: C1q binding ELISA: plate coated with 1 µg/mL antibody, purified C1q titrated 0.010-30 µg/mL; SD 0.8, n 3. (In general: An ELISA detects its analyte on a solid surface through an enzyme-linked reagent.)
Method: (§1) A binding ELISA was performed to evaluate the effect of different substitutions on C1q binding. […] Plates were washed and blocked for 1 hour at RT with 200 μL/well 0.5×PBS supplemented with 0.025% Tween 20 and 0.1% gelatin while shaking. […] The reaction was stopped by the addition of 100 μL 2% oxalic acid. Absorbance was measured at 405 nm in a BioTek EL808 Microplate Reader (BioSPX). Log transformed data were analyzed by fitting sigmoidal dose-response curves with variable slope using GraphPad Prism software.

For test [3], the target named is T1, purified human C1q. Nature of the test: C1q binding ELISA (Example 6): plate coated with 1 µg/mL antibody, purified C1q titrated; SD 0.1, n 3.
Method: as §1
For test [4], the target named is T1, purified human C1q. The test is described as follows: C1q binding ELISA: plate coated with 1 µg/mL antibody, purified C1q titrated 0.010-30 µg/mL; SD 0.2, n 3.
Method: as §1
In test [5] the target is T1, purified human C1q. Nature of the test: C1q binding ELISA: plate coated with 1 µg/mL antibody, purified C1q titrated 0.010-30 µg/mL; SD 0.1, n 3.
Method: as §1
Test [6] addresses T1, purified human C1q. Nature of the test: C1q binding ELISA (Example 6): plate coated with 1 µg/mL antibody, purified C1q titrated; SD 3.9, n 3.
Method: as §1
The target of test [7] is human CD40 (human, UniProt P25942 21-277). The test is described as follows: cell-based or functional assay.

Positions count from the first letter of the chain named. In names and notes the source's numbering stands.

Sequence of human CD40 (P25942 21-277): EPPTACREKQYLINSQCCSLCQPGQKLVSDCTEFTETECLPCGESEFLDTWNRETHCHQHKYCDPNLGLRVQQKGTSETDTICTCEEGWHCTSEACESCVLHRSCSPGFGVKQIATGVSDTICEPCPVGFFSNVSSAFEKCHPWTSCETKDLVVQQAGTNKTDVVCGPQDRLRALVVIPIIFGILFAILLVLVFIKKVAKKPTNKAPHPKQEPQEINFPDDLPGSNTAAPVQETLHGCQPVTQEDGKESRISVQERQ
Sequence of human 4-1BB (Q07011 24-255): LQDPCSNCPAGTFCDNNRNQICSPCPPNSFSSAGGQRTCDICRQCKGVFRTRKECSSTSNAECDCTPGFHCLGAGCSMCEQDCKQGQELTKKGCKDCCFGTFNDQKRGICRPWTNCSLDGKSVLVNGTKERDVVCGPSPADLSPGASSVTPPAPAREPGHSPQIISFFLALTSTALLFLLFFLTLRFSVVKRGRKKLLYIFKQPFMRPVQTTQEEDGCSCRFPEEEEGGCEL

B1: IgG1-BMS-663513-K326W/E333S/E430G (antibody, V domains shown)
VH: QVQLQQWGAGLLKPSETLSLTCAVYGGSFSGYYWSWIRQSPEKGLEWIGEINHGGYVTYNPSLESRVTISVDTSKNQFSLKLSSVTAADTAVYYCARDYGPGNYDWYFDLWGRGTLVTVSS
VL: EIVLTQSPATLSLSPGERATLSCRASQSVSSYLAWYQQKPGQAPRLLIYDASNRATGIPARFSGSGSGTDFTLTISSLEPEDFAVYYCQQRSNWPPALTFGGGTKVEIK
B1: the “4-1BB signaling, luciferase reporter Jurkat cells, EC50” value in test [1] came out at 0.0329 µg/mL.

B2: IgG1-hDR5-01-G56T-E333A/P396L/E430G (antibody)
heavy: EVQLQQSGAEVVKPGASVKLSCKASGFNIKDTFIHWVKQAPGQGLEWIGRIDPANTNTKYDPKFQGKATITTDTSSNTAYMELSSLRSEDTAVYYCVRGLYTYYFDYWGQGTLVTVSSASTKGPSVFPLAPSSKSTSGGTAALGCLVKDYFPEPVTVSWNSGALTSGVHTFPAVLQSSGLYSLSSVVTVPSSSLGTQTYICNVNHKPSNTKVDKRVEPKSCDKTHTCPPCPAPELLGGPSVFLFPPKPKDTLMISRTPEVTCVVVDVSHEDPEVKFNWYVDGVEVHNAKTKPREEQYNSTYRVVSVLTVLHQDWLNGKEYKCKVSNKALPAPIAKTISKAKGQPREPQVYTLPPSREEMTKNQVSLTCLVKGFYPSDIAVEWESNGQPENNYKTTPLVLDSDGSFFLYSKLTVDKSRWQQGNVFSCSVMHGALHNHYTQKSLSLSPGK
light: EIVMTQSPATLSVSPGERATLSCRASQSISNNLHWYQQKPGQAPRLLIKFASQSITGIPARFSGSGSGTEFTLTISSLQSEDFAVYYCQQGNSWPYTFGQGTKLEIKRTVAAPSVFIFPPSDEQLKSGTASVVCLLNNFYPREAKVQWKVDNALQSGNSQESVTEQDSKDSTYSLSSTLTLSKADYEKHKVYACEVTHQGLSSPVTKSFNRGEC
notes: IgG1,kappa
For B2, in test [2], the EC50 – broadly, the concentration that produces a half-maximal response – was 1.9 µg/mL.

B3: IgG1-hDR5-01-G56T-S267E/H268F/S324T/E430G (antibody)
heavy: B2 heavy with S268E, H269F, S325T, A334E, L397P
light: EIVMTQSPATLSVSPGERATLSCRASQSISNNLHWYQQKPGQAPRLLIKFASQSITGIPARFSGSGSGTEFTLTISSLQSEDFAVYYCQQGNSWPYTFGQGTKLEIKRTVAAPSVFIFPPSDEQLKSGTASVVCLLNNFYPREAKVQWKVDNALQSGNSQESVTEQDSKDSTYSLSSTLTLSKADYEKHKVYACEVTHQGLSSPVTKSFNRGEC
notes: IgG1,kappa
For the molecule B3, a half-maximal effect in test [3] (EC50) was put at 0.5 µg/mL.

B4: IgG1-hDR5-01-G56T-K326A/E333A/P396L/E430G (antibody)
heavy: B2 heavy with K327A
light: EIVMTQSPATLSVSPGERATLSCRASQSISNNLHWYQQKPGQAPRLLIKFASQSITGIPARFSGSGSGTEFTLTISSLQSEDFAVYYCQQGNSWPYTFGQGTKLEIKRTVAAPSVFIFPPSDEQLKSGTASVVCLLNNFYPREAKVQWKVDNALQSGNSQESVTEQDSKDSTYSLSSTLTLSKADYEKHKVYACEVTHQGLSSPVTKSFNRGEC
notes: IgG1,kappa
As for B4, the response in test [4] was half-maximal at 1.3 µg/mL (EC50).

B5: IgG1-hDR5-01-G56T-K326A/E333A/E430G (antibody)
heavy: B2 heavy with K327A, L397P
light: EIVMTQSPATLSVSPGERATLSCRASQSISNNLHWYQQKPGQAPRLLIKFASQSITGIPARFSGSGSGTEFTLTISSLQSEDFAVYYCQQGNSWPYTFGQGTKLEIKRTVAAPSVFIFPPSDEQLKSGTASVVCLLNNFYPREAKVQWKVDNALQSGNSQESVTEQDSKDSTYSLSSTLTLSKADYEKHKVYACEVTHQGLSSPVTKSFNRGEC
notes: IgG1,kappa
B5: the EC50 in test [5] was determined as 0.8 µg/mL.

B6: IgG1-hDR5-01-G56T-K326A/P396L/E430G (antibody)
heavy: B2 heavy with K327A, A334E
light: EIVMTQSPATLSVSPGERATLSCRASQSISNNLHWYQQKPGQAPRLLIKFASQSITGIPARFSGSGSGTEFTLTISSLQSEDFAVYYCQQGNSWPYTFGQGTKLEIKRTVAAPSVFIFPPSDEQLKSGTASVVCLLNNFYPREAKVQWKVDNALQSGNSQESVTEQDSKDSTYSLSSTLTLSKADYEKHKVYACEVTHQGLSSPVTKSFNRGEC
notes: IgG1,kappa
In turn, B6 came in with a 50% effective concentration (EC50) in test [5] of 0.6 µg/mL.

B7: IgG113F-hDR5-01-G56T-E430G (antibody)
heavy: B2 heavy with K275Q, N277K, Y301F, A334E, A340T, N385S, K393N, L397P, V398M, V423I
light: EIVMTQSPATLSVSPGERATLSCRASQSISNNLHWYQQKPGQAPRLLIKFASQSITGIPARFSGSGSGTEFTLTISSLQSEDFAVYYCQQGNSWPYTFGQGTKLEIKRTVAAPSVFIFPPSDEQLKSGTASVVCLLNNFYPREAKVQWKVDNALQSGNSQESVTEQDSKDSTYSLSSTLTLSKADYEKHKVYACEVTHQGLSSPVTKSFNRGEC
notes: also called IgG113F-E430G
B7 gave a concentration for a half-maximal effect (EC50) in test [6] of 11.4 µg/mL.

B8: IgG1-CD40-CP870893 (antibody)
heavy: not shown
VL: DIQMTQSPSSVSASVGDRVTITCRASQGIYSWLAWYQQKPGKAPNLLIYTASTLQSGVPSRFSGSGSGTDFTLTISSLQPEDFATYYCQQANIFPLTFGGGTKVEIK
On to B8, for which the “CD40 response, luciferase reporter cells, EC50” value (from here on “CD40 response”) in test [7] was determined as 0.187 µg/mL.

B9: IgG1-CD40-CP870893-K326W/E333S/E430G (antibody)
heavy: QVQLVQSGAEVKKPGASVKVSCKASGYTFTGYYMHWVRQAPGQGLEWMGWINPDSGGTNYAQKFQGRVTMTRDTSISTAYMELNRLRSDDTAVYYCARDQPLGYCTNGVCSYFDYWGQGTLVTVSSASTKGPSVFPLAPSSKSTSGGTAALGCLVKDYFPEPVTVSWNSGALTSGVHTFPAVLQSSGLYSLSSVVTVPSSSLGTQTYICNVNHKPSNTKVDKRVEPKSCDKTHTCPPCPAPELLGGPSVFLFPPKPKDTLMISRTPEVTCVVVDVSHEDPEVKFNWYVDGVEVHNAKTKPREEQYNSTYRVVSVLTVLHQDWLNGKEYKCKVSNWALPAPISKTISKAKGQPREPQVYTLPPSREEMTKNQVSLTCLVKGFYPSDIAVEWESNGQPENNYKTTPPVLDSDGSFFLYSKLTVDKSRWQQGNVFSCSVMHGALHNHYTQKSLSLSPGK
VL: B8 VL
Regarding B9, the “CD40 response” value in test [7] stood at 0.0459 µg/mL.

B10: IgG1-CD40-SGN40 (antibody)
heavy: not shown
VL: DIQMTQSPSSLSASVGDRVTITCRSSQSLVHSNGNTFLHWYQQKPGKAPKLLIYTVSNRFSGVPSRFSGSGSGTDFTLTISSLQPEDFATYFCSQTTHVPWTFGQGTKVEIK
Regarding B10, the “CD40 response” value in test [7] turned out to be 3.36 µg/mL.

B11: IgG1-CD40-SGN40-E430G (antibody)
heavy: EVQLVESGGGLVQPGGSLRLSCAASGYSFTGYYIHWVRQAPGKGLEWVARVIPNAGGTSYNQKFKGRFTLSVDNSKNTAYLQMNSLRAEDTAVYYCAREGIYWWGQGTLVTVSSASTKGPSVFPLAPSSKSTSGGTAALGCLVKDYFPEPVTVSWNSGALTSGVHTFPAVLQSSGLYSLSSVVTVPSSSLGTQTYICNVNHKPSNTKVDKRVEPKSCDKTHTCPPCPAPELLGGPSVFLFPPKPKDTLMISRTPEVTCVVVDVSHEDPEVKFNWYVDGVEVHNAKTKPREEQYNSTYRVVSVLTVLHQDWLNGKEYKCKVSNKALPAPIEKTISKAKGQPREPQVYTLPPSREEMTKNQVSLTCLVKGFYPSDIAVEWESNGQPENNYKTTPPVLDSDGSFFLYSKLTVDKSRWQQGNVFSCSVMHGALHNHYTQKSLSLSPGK
VL: B10 VL
Take B11: in test [7], the “CD40 response” value amounted to 0.336 µg/mL.

B12: IgG1-CD40-SGN40-K326W/E333S/E430G (antibody)
heavy: EVQLVESGGGLVQPGGSLRLSCAASGYSFTGYYIHWVRQAPGKGLEWVARVIPNAGGTSYNQKFKGRFTLSVDNSKNTAYLQMNSLRAEDTAVYYCAREGIYWWGQGTLVTVSSASTKGPSVFPLAPSSKSTSGGTAALGCLVKDYFPEPVTVSWNSGALTSGVHTFPAVLQSSGLYSLSSVVTVPSSSLGTQTYICNVNHKPSNTKVDKRVEPKSCDKTHTCPPCPAPELLGGPSVFLFPPKPKDTLMISRTPEVTCVVVDVSHEDPEVKFNWYVDGVEVHNAKTKPREEQYNSTYRVVSVLTVLHQDWLNGKEYKCKVSNWALPAPISKTISKAKGQPREPQVYTLPPSREEMTKNQVSLTCLVKGFYPSDIAVEWESNGQPENNYKTTPPVLDSDGSFFLYSKLTVDKSRWQQGNVFSCSVMHGALHNHYTQKSLSLSPGK
VL: B10 VL
For the molecule B12, the “CD40 response” value in test [7] stood at 0.018 µg/mL.

The record behind these values is patent US20200181277A1 (Genmab, published 2020).
